Measured values as given in article PMC4413028 (Science (New York, N.Y.), 2015).

B1: Get3(D57N) (native, full-length S. cerevisiae Get3, ATP hydrolysis mutant) (natural protein)
chain: MDLTVEPNLHSLITSTTHKWIFVGGKGGVGKTTSSCSIAIQMALSQPNKQFLLISTNPAHNLSDAFGEKFGKDARKVTGMNNLSCMEIDPSAALKDMNDMAVSRANNNGSDGQGDDLGSLLQGGALADLTGSIPGIDEALSFMEVMKHIKRQEQGEGETFDTVIFDTAPTGHTLRFLQLPNTLSKLLEKFGEITNKLGPMLNSFMGAGNVDISGKLNELKANVETIRQQFTDPDLTTFVCVCISEFLSLYETERLIQELISYDMDVNSIIVNQLLFAENDQEHNCKRCQARWKMQKKYLDQIDELYEDFHVVKMPLCAGEIRGLNNLTKFSQFLNKEYNPITDGKVIYELEDKE
B2: Get3 (S. cerevisiae, wild-type) co-expressed with 6xHis-Pep12(262-288) (natural protein)
chain: MDLTVEPNLHSLITSTTHKWIFVGGKGGVGKTTSSCSIAIQMALSQPNKQFLLISTDPAHNLSDAFGEKFGKDARKVTGMNNLSCMEIDPSAALKDMNDMAVSRANNNGSDGQGDDLGSLLQGGALADLTGSIPGIDEALSFMEVMKHIKRQEQGEGETFDTVIFDTAPTGHTLRFLQLPNTLSKLLEKFGEITNKLGPMLNSFMGAGNVDISGKLNELKANVETIRQQFTDPDLTTFVCVCISEFLSLYETERLIQELISYDMDVNSIIVNQLLFAENDQEHNCKRCQARWKMQKKYLDQIDELYEDFHVVKMPLCAGEIRGLNNLTKFSQFLNKEYNPITDGKVIYELEDKE

Legend:
[1] = molecular target: B1; experiment: crystal structure
[2] = molecular target: the molecule itself; experiment: SEC-MALS
[3] = molecular target: the molecule itself; experiment: SEC-MALS; remark: listed apart in the source
[4] = molecular target: the molecule itself; experiment: sucrose gradient sedimentation
[5] = molecular target: B2; experiment: SEC-MALS

binding result [1]	Binder	stoichiometry N [2]	other results
binds	KINFDLLISQYAPIVIVAFFFVFLFWWIFLK (domain or fragment) [Sec22(184-214), truncated TA substrate with N-terminal 6xHis tag]		
	B1	2	
	6xHis-tagged Get3(D57N) (natural protein) MDLTVEPNLHSLITSTTHKWIFVGGKGGVGKTTSSCSIAIQMALSQPNKQFLLISTNPAHNLSDAFGEKFGKDARKVTGMNNLSCMEIDPSAALKDMNDMAVSRANNNGSDGQGDDLGSLLQGGALADLTGSIPGIDEALSFMEVMKHIKRQEQGEGETFDTVIFDTAPTGHTLRFLQLPNTLSKLLEKFGEITNKLGPMLNSFMGAGNVDISGKLNELKANVETIRQQFTDPDLTTFVCVCISEFLSLYETERLIQELISYDMDVNSIIVNQLLFAENDQEHNCKRCQARWKMQKKYLDQIDELYEDFHVVKMPLCAGEIRGLNNLTKFSQFLNKEYNPITDGKVIYELEDKE		stoichiometry N [3]: 2
	Get3 (S. cerevisiae, full-length, wild-type) (natural protein) MDLTVEPNLHSLITSTTHKWIFVGGKGGVGKTTSSCSIAIQMALSQPNKQFLLISTDPAHNLSDAFGEKFGKDARKVTGMNNLSCMEIDPSAALKDMNDMAVSRANNNGSDGQGDDLGSLLQGGALADLTGSIPGIDEALSFMEVMKHIKRQEQGEGETFDTVIFDTAPTGHTLRFLQLPNTLSKLLEKFGEITNKLGPMLNSFMGAGNVDISGKLNELKANVETIRQQFTDPDLTTFVCVCISEFLSLYETERLIQELISYDMDVNSIIVNQLLFAENDQEHNCKRCQARWKMQKKYLDQIDELYEDFHVVKMPLCAGEIRGLNNLTKFSQFLNKEYNPITDGKVIYELEDKE		stoichiometry N [4]: 2
	B2	4	
binds	KRTSRWRVYLLIVLLVMLLFIFLIMKL (domain or fragment) [Pep12(262-288), truncated TA substrate with N-terminal 6xHis tag]		binding result [5]: binds
